# Molecular target: ARID1A (endogenous, ARID1A-wildtype cancer cell lysate) (UniProt O14497)
# UniProt O14497, sequence (O14497 whole entry, looked up): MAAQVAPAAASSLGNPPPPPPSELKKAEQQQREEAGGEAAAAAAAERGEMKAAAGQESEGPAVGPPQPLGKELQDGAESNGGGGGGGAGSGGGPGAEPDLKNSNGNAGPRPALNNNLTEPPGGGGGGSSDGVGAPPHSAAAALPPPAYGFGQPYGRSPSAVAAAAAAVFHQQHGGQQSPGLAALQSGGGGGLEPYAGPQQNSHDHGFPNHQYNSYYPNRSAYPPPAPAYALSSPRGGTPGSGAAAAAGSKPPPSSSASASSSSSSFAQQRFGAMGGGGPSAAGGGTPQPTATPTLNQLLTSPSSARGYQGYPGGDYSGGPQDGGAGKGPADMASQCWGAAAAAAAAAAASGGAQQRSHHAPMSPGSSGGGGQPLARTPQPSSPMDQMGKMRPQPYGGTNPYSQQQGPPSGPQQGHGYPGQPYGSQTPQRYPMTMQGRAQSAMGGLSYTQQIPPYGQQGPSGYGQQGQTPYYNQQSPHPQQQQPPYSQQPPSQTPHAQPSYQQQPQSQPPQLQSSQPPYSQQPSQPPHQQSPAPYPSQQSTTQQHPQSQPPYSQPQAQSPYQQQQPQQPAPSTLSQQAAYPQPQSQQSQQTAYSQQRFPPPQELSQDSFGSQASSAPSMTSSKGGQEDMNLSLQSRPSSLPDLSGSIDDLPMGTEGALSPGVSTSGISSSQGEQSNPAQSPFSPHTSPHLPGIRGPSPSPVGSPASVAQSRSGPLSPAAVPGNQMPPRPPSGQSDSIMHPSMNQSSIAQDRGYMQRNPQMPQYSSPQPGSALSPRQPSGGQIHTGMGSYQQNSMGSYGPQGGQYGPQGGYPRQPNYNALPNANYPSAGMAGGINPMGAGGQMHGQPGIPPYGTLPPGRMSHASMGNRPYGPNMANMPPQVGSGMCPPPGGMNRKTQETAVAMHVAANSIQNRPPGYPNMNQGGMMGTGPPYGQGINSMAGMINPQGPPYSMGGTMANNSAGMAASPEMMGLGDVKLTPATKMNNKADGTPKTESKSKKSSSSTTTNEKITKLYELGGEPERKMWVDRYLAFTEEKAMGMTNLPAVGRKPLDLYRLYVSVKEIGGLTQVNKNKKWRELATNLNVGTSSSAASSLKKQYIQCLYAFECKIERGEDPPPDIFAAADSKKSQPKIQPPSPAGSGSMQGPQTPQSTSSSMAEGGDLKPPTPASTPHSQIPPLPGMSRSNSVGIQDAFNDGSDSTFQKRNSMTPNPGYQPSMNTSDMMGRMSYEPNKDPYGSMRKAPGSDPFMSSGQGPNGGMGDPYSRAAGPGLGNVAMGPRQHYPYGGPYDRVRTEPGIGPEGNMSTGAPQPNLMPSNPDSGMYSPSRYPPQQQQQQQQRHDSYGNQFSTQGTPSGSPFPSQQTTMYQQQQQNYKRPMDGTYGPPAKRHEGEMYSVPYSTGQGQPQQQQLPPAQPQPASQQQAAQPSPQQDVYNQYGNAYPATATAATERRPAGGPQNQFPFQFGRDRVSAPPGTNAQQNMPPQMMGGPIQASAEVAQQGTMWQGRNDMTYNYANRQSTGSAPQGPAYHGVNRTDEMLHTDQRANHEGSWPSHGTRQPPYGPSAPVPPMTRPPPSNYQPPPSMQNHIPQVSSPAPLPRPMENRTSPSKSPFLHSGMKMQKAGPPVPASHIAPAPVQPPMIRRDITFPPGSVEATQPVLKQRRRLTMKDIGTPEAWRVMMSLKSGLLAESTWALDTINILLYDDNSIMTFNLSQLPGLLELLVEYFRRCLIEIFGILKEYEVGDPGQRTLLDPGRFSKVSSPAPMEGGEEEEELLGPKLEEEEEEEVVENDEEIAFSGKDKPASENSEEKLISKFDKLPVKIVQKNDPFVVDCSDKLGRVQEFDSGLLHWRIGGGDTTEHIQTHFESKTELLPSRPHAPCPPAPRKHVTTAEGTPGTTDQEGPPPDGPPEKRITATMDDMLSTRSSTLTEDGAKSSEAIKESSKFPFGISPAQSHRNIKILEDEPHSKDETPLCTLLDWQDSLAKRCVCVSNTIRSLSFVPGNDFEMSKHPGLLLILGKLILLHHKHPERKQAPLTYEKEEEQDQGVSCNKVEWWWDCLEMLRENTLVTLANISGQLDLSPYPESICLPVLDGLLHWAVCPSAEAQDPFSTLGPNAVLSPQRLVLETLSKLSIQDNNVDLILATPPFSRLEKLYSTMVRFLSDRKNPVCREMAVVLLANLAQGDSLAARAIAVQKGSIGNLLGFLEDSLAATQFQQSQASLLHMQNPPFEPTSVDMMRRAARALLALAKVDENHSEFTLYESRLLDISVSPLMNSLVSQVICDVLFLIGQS
substance,measurement,value
"Carbamoyl-phosphate synthetase 2, Aspartate transcarbamoylase, and Dihydroorotase (CAD) (endogenous)",total CAD and phosphorylated CAD (Serine-1859) protein levels by immunoblot after ARID1A knockdown or restoration,"wildtype ARID1A functions as a negative regulator of CAD, wherein ARID1A deficiency results in an increase in total and phosphorylated CAD"

# From patent publication US20210154165
